According to patent publication US10801027B2, “Inhibitors of SRSF1 to treat neurodegenerative disorders” (University of Sheffield, priority 2016, dated 2020):

Experiments:
[1] = tested on: G4C2-sense or C4G2-antisense repeat transcripts; test: RNA immunoprecipitation (RIP) assays in N2A cells; assay type: binding, mouse; conditions: 15 vs 38/39 repeats
Procedure: Cells were split into 1×T-175 flasks/treatment (5×10^6 cells/plate) and transfected with 30 μg p3×FLAG, p3×FLAG/SRSF1 (11-196) or p3×FLAG/SRSF1 (11-196)-m4 and 10 μg pcDNA 3.1/RAN-G4C2×15-sense, RAN-G4C2×38-sense, RAN-G4C2×15-antisense or RAN-C4G2×39-antisense using 3 μg PEI/1 μg […] and one tenth volume OptiMEM.
Protein-RNA complexes were extracted from Neuro-2a cells 48 hours after transfection. Protein-RNA complexes were cross-linked using 1% formaldehyde for 10 minutes, shaking at room temperature. Residual formaldehyde was quenched with 250 mM Glycine at room temperature for 5 minutes, shaking. Cross-linked cells were subsequently washed in ice cold DEPC treated PBS and scraped into ice cold RNase free lysis buffer (DEPC treated water containing 50 mM Hepes pH7.5, 150 mM NaCl, 10% glycerol, 0.5% triton X-100, 1 mM EDTA, 1 mM DTT, 1 μl RNase inhibitor, protease inhibitor cocktail). Cells were passed through a 21G gauge needle 10 times and left to lyse on ice for 10 minutes, followed by centrifugation at maximum speed at 4° C. for five minutes and quantification using Bradford Reagent. 2.5 mg of total protein at a 1 mg/ml concentration was incubated with 40 μl anti-FLAG® M2 affinity resin slurry (which had been blocked overnight with 1% BSA and 5 μl/ml ssDNA) overnight at 4° C. on a rotating wheel. One 15th of the total protein extract was retained for an input sample. […]

[2] = tested on: N2A cells; test: MTT cell proliferation assay; assay type: cell-based, mouse; conditions: G4C2×38 or C4G2×39 plasmids, 72 h
Procedure: Neuro-2a (N2A) cells were split into each well of a 24 well plate (30,000 cells/well). Each plate contained 4 wells with only media to serve as a blank and 4 wells/treatment. Cells were transfected for 72 hours with either 500 ng pcDNA 3.1, pcDNA 3.1/RAN-G4C2×15 RAN-G4C2×38-sense, RAN-C4G2×15 or RAN-C4G2×39-antisense; or 250 ng pcDNA6.2-GW/EmGFP-Control miR RNAi, pcDNA6.2-GW/EmGFP-mouse SRSF1 miR1+2 RNAi, p3×FLAG/SRSF1 (11-196), or p3×FLAG/SRSF1 (11-196)-m4 and 250 ng pcDNA 3.1, pcDNA 3.1/RAN-G4C2×38-sense or RAN-C4G2×39-antisense.
[…] Thiazolyl Blue Tetrazolum Bromide reagent (MTT) was added to each well and incubated in the dark at […] for 1 hour. Cells were subsequently lysed with equal volume MTT lysis buffer (20% SDS, 50% Dimethylformamide (DMF)) and incubated, shaking, at room temperature for 1 hour. Absorbance at 595 was then assessed with a PHERAstar FS (BMG Labtech). Experiments were performed in triplicate for each treatment. Absorbance data was analysed using PHERAstar MARS (BMG Labtech) and GraphPad Prism (version 6).

B1: SRSF1-m4: quadruple SRSF1 point mutant aa11-196, dominant negative, does not interact with TAP/NXF1 (protein)
chain: AGNNDCRIYVGNLPPDIRTKDIEDVFYKYGAIRDIDLKNRRGGPPFAFVEFEDPRDAEDAVYGRDGYDYDGYRLRVEFPASGAGTGRGGGGGGGGGAPRGRYGPPSAASENRVVVSGLPPSGSWQDLKDHMREAGDVCYADVYRDGTGVVEFVRKEDMTYAVRKLDNTKFRSHEGETAYIRVKVDG
modifications: left off: small tags and cut ends
With B1 the immunoprecipitated repeat transcripts [1] was “length-dependent repeat-RNA sequestration” and the “neurotoxicity mediated by expression of the C9ORF72 repeat transcripts” value [2] was “suppress the neurotoxicity”.
